Assay [1] has as its target dynactin subunit p150^Glued, Q14203-1. Nature of the assay: co-immunoprecipitation (IP: anti-Halo) with immunoblot quantification. To be noted: HEK293 cell lysate, bars mean ± SEM, parent: est. 1.0, read off a plot. In general terms: A western blot detects proteins with antibodies after separation by electrophoresis.
The target in assay [2] is kinesin heavy chain (KHC) (UniProt P33176). Described as above. The settings on record: HEK293 cell lysate; n = 5 independent experiments; bars mean ± SEM; parent: est. 1.0; read off a plot.
For assay [3], the target named is Halo-HA-Nesp2-SR48∼56 (Nesprin-2 spectrin repeats 48-56) (mouse) (UniProt Q6ZWQ0).

For “Halo-HA-Nesp2-SR48-KASH (Nesprin-2 SR48-56 and the KASH domain) (from UniProt Q6ZWQ0-1) LEWD>LEAA”, in assay [1] (n = 5 independent experiments), the ratio to parent came to 0.98.
In the case of “Halo-HA-Nesp2-SR48-KASH (Nesprin-2 SR48-56 and the KASH domain) (from UniProt Q6ZWQ0-1) ALALE>AAAAA; SLFTE>AAAAA; RLARE>AAAAA; AAWLG>VVWLG”, the ratio to parent amounted to 0.22 in assay [2] and 0.19 in assay [1] (n = 5 independent experiments).
For “Bicaudal D2 (BicD2) (from UniProt Q8TD16 1-824) (natural protein)”, the velocity of rapalog-induced peroxisome transport by Nesp2-SR48ΔKASH-FRB (5655-6767aa) along microtubules in MRC5 cells, both directions in assay [3] is 1 µm/s.
Regarding “kinesin heavy chain (KHC) (from UniProt P33176 1-963) (natural protein)”, the velocity of rapalog-induced peroxisome transport by Nesp2-SR48ΔKASH-FRB (5655-6767aa) along microtubules in MRC5 cells, both directions in assay [3] amounted to 1 µm/s.
The same measure, in the same setting: the result for “dynactin subunit p150^Glued (from UniProt Q14203-1 1-1278) (natural protein)” reads 1 µm/s.
Take “Halo-HA-Nesp2-SR48-KASH (Nesprin-2 SR48-56 and the KASH domain) (from UniProt Q6ZWQ0-1) ALALE>AAAAA; SLFTE>AAAAA; RLARE>AAAAA; LEWD>LEAA; AAWLG>VVWLG”: in assay [1] (3 data points drawn for this bar), the ratio to parent came out at 0.08.
In assay [3], “dynein heavy chain (DHC) (from UniProt Q14204 1-4646) (natural protein)” registered a velocity of rapalog-induced peroxisome transport by Nesp2-SR48ΔKASH-FRB (5655-6767aa) along microtubules in MRC5 cells, both directions of 1 µm/s.

The record behind these values is article PMC11310688.
